In IntAct's records for PubMed 19726565:

B1: Inositol phosphorylceramide synthase regulatory subunit KEI1 (Saccharomyces cerevisiae), Q06346 (parent)
chain: MRSSLLTLPKSFLGFMPLYLAVEIVLGISILNKCSGAYGILALFTGHPLDFMQWIAYLWSVFTLIVFSQGLYLIHKPNLLVFSQICVLYTIDTISTCFFTLWFTTQWFTLEDTANIDGNNALQSNPISTGKLTERGIDISKQSATESYEYTMTILITLVSLIFRFYFNFILASFVQELLHHPKYLVDRDDVEQNLKNKPIWKRLWAKSQKGCYKLCKNLLE
partner: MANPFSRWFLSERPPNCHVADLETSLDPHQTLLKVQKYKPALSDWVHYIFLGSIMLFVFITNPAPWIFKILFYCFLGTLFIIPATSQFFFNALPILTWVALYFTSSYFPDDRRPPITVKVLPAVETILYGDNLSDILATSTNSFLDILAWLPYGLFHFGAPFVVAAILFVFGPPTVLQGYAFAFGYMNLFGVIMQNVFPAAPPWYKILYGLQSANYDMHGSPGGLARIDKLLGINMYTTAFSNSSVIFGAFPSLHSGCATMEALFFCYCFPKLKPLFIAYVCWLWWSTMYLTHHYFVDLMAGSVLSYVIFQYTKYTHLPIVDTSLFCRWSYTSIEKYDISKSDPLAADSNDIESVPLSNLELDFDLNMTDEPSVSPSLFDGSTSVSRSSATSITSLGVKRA

Variants of: B1
Conditions: with aur1_yeast AUR1, P36107

effect of a mutation on the interaction	Variant
disrupting interaction strength	MRSSLLTLPKSFLGFMPLYLAVEIVLGISILNKCSGAYGILALFTGHPLDFMQWIAYLWSVFTLIVFSQGLYLIHKPNLLVFSQICVLYTIDTISTCFFTLWITTQWFTLEDTANIDGNNALQSNPISTGKLTERGIDISKQSATESYEYTMTILITLVSLIFRFYFNFILASFVQELLHHPKYLVDRDDVEQNLKNKPIWKRLWAKSQKGCYKLCKNLLE [F103I]
